Experimental data published in patent publication US20200299408A1 (Genentech, published 2020).

T1: single chain human CD3ε-26mer-CD3γ (CD3εγ) (human)
T1 construct: also called human CD3εγ
T1 chain: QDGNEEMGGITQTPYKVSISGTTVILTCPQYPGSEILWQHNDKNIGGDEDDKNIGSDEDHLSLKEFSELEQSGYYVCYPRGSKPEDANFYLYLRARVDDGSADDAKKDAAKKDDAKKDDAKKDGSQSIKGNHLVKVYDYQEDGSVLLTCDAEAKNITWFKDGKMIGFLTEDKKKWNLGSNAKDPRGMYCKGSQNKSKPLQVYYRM


What was measured:
[1] = target: T1, single chain human CD3ε-26mer-CD3γ …; assay: Biacore full (multi-) cycle kinetics; KD relative to hu38E4.v1
Text: (§1) In addition, position 95 in HVR-H3 was also mutated to serine, threonine, or glutamate. Variants with these single point mutations were expressed as Fabs in HEK293 cells and initially screened with a single cycle kinetics method on a Biacore T100. Selected variants were also scaled up and purified for a conventional multi-cycle kinetics method. For single cycle kinetics, Biacore Series S CM5 sensor chips were immobilized with anti-human Fab antibodies (Human Fab capture kit, GE Healthcare). […] For conventional multi-cycle kinetics, human CD3εγ, cyno CD3εγ, or a 27-mer peptide were immobilized on Biacore Series S CM5 sensor chip using the amine coupling kit from Biacore. Serial 3-fold dilutions of each Fab variant were injected at a flow rate of 30 μl/min. Each sample was analyzed with a protocol of 3-minute association and 3-minute dissociation. In both methods, the Biacore chips were regenerated using 10 mM Glycine (pH 1.7). Binding response was corrected by blank subtraction and a 1:1Languir model of simultaneous fitting of kₒₙ and koff was used for kinetics analysis.

[2] = target: T1, single chain human CD3ε-26mer-CD3γ …; assay: Biacore full (multi-) cycle kinetics: antigen on chip, Fab injected; antigen not named on the sheet, taken as human CD3εγ
Text: as §1

[3] = target: T2, commercial CD3ε (Creative Biomart, Catalog Number CD3E-2194H) (human, UniProt P07766); assay: binding affinity on commercial CD3ε (Creative Biomart CD3E-2194H); method not stated in the legend
T2 construct: commercial recombinant protein; also called commercial CD3E

Row | ratio (fold) [1] [fold] | Kd [2] [nM] | koff [2] [s⁻¹] | kon [2] [M⁻¹ s⁻¹] | Kd [3] [nM] | Binder
1 | 29.9 | 23.8 | 0.00422 | 178000 |  | hu38E4.v1 L3 mutant Q90A (Fab, V domains shown, copies: 1 + 1) VH: EVQLVQSGAEVKKPGASVKVSCKASGFTFTSYYIHWVRQAPGQGLEWIGWIYPENDNTKYNEKFKDRVTITADTSTSTAYLELSSLRSEDTAVYYCARDGYSRYYFDYWGQGTLVTVSS VL: DIVMTQSPDSLAVSLGERATINCKSSQSLLNSRTRKNYLAWYQQKPGQSPKLLIYWTSTRKSGVPDRFSGSGSGTDFTLTISSLQAEDVAVYYCKASFILRTFGQGTKVEIK
2 | 5.1 | 4 | 0.0124 | 3.08e+06 |  | hu38E4.v1 L3 mutant I93A (Fab, V domains shown, copies: 1 + 1) VH: EVQLVQSGAEVKKPGASVKVSCKASGFTFTSYYIHWVRQAPGQGLEWIGWIYPENDNTKYNEKFKDRVTITADTSTSTAYLELSSLRSEDTAVYYCARDGYSRYYFDYWGQGTLVTVSS VL: DIVMTQSPDSLAVSLGERATINCKSSQSLLNSRTRKNYLAWYQQKPGQSPKLLIYWTSTRKSGVPDRFSGSGSGTDFTLTISSLQAEDVAVYYCKQSFALRTFGQGTKVEIK
3 |  |  |  |  | 7 | murine SP34 (antibody, V domains shown) VH: EVQLVESGGGLVQPKGSLKLSCAASGFTFNTYAMNWVRQAPGKGLEWVARIRSKYNNYATYYADSVKDRFTISRDDSQSILYLQMNNLKTEDTAMYYCVRHGNFGNSYVSWFAYWGQGTLVTVSS VL: QAVVTQESALTTSPGETVTLTCRSSTGAVTTSNYANWVQEKPDHLFTGLIGGTNKRAPGVPARFSGSLIGDKAALTITGAQTEDEAIYFCALWYSNLWVFGGGTKLTVL
4 |  |  |  |  | 8 | humanized SP34 variant: λ7 graft + F36V + Q38E + A43L + P44F + T46G + Y49G + T58V + Y87F / VH3 graft G49A + N73D + T93V (antibody, V domains shown) VH: EVQLVESGGGLVQPGGSLRLSCAASGFTFNTYAMNWVRQAPGKGLEWVARIRSKYNNYATYYADSVKDRFTISRDDSKNTLYLQMNSLRAEDTAVYYCVRHGNFGNSYVSWFAYWGQGTLVTVSS VL: EAVVTQEPSLTVSPGGTVTLTCRSSTGAVTTSNYANWVQEKPGQLFRGLIGGTNKRAPWVPARFSGSLLGGKAALTLSGAQPEDEAEYFCALWYSNLWVFGGGTKLTVL
5 |  |  |  |  | 3.1 | humanized SP34 variant: λ7 graft + F36V + Q38E + A43L + P44F + T46G + Y49G + T58V + Y87F / VH3 graft + N73D + T93V (antibody, V domains shown) VH: EVQLVESGGGLVQPGGSLRLSCAASGFTFNTYAMNWVRQAPGKGLEWVGRIRSKYNNYATYYADSVKDRFTISRDDSKNTLYLQMNSLRAEDTAVYYCVRHGNFGNSYVSWFAYWGQGTLVTVSS VL: EAVVTQEPSLTVSPGGTVTLTCRSSTGAVTTSNYANWVQEKPGQLFRGLIGGTNKRAPWVPARFSGSLLGGKAALTLSGAQPEDEAEYFCALWYSNLWVFGGGTKLTVL
6 |  |  |  |  | 21 | humanized SP34 variant: λ7 graft + F36V + Q38E + A43L + P44F + T46G + Y49G + T58V + Y87F / VH3 graft + G49A + T93V (antibody, V domains shown) VH: EVQLVESGGGLVQPGGSLRLSCAASGFTFNTYAMNWVRQAPGKGLEWVARIRSKYNNYATYYADSVKDRFTISRDNSKNTLYLQMNSLRAEDTAVYYCVRHGNFGNSYVSWFAYWGQGTLVTVSS VL: EAVVTQEPSLTVSPGGTVTLTCRSSTGAVTTSNYANWVQEKPGQLFRGLIGGTNKRAPWVPARFSGSLLGGKAALTLSGAQPEDEAEYFCALWYSNLWVFGGGTKLTVL
7 |  |  |  |  | 15.9 | humanized SP34 variant: λ7 graft + F36V + T46G + Y49G / VH3 graft + T93V (antibody, V domains shown) VH: EVQLVESGGGLVQPGGSLRLSCAASGFTFNTYAMNWVRQAPGKGLEWVGRIRSKYNNYATYYADSVKDRFTISRDNSKNTLYLQMNSLRAEDTAVYYCVRHGNFGNSYVSWFAYWGQGTLVTVSS VL: EAVVTQEPSLTVSPGGTVTLTCRSSTGAVTTSNYANWVQQKPGQAPRGLIGGTNKRAPWTPARFSGSLLGGKAALTLSGAQPEDEAEYYCALWYSNLWVFGGGTKLTVL

Second part, the binder before the results:

Row | Binder | ratio (fold) [1] [fold] | Kd [2] [nM] | koff [2] [s⁻¹] | kon [2] [M⁻¹ s⁻¹] | Kd [3] [nM]
8 | hu38E4.v1 H3 mutant D95S (Fab, V domains shown, copies: 1 + 1) VH: EVQLVQSGAEVKKPGASVKVSCKASGFTFTSYYIHWVRQAPGQGLEWIGWIYPENDNTKYNEKFKDRVTITADTSTSTAYLELSSLRSEDTAVYYCARSGYSRYYFDYWGQGTLVTVSS VL: DIVMTQSPDSLAVSLGERATINCKSSQSLLNSRTRKNYLAWYQQKPGQSPKLLIYWTSTRKSGVPDRFSGSGSGTDFTLTISSLQAEDVAVYYCKQSFILRTFGQGTKVEIK | 226 | 180 | 0.202 | 1.12e+06 | 
9 | hu38E4.v1 H3 mutant Y100A (Fab, V domains shown, copies: 1 + 1) VH: EVQLVQSGAEVKKPGASVKVSCKASGFTFTSYYIHWVRQAPGQGLEWIGWIYPENDNTKYNEKFKDRVTITADTSTSTAYLELSSLRSEDTAVYYCARDGYSRAYFDYWGQGTLVTVSS VL: DIVMTQSPDSLAVSLGERATINCKSSQSLLNSRTRKNYLAWYQQKPGQSPKLLIYWTSTRKSGVPDRFSGSGSGTDFTLTISSLQAEDVAVYYCKQSFILRTFGQGTKVEIK | 521 | 414 | 0.0191 | 46000 | 
10 | hu38E4.v1 H3 mutant D95T (Fab, V domains shown, copies: 1 + 1) VH: EVQLVQSGAEVKKPGASVKVSCKASGFTFTSYYIHWVRQAPGQGLEWIGWIYPENDNTKYNEKFKDRVTITADTSTSTAYLELSSLRSEDTAVYYCARTGYSRYYFDYWGQGTLVTVSS VL: DIVMTQSPDSLAVSLGERATINCKSSQSLLNSRTRKNYLAWYQQKPGQSPKLLIYWTSTRKSGVPDRFSGSGSGTDFTLTISSLQAEDVAVYYCKQSFILRTFGQGTKVEIK | 43 | 34.2 | 0.00175 | 51100 | 
11 | hu38E4.v1 L3 mutant F92A (Fab, V domains shown, copies: 1 + 1) VH: EVQLVQSGAEVKKPGASVKVSCKASGFTFTSYYIHWVRQAPGQGLEWIGWIYPENDNTKYNEKFKDRVTITADTSTSTAYLELSSLRSEDTAVYYCARDGYSRYYFDYWGQGTLVTVSS VL: DIVMTQSPDSLAVSLGERATINCKSSQSLLNSRTRKNYLAWYQQKPGQSPKLLIYWTSTRKSGVPDRFSGSGSGTDFTLTISSLQAEDVAVYYCKQSAILRTFGQGTKVEIK | 20 | 15.9 | 0.0232 | 1.46e+06 | 
12 | hu38E4.v1 H3 mutant Y100aA (Fab, V domains shown, copies: 1 + 1) VH: EVQLVQSGAEVKKPGASVKVSCKASGFTFTSYYIHWVRQAPGQGLEWIGWIYPENDNTKYNEKFKDRVTITADTSTSTAYLELSSLRSEDTAVYYCARDGYSRYAFDYWGQGTLVTVSS VL: DIVMTQSPDSLAVSLGERATINCKSSQSLLNSRTRKNYLAWYQQKPGQSPKLLIYWTSTRKSGVPDRFSGSGSGTDFTLTISSLQAEDVAVYYCKQSFILRTFGQGTKVEIK | 110 | 87 | 0.0246 | 283000 | 
13 | hu38E4.v1 H3 mutant G96A (Fab, V domains shown, copies: 1 + 1) VH: EVQLVQSGAEVKKPGASVKVSCKASGFTFTSYYIHWVRQAPGQGLEWIGWIYPENDNTKYNEKFKDRVTITADTSTSTAYLELSSLRSEDTAVYYCARDAYSRYYFDYWGQGTLVTVSS VL: DIVMTQSPDSLAVSLGERATINCKSSQSLLNSRTRKNYLAWYQQKPGQSPKLLIYWTSTRKSGVPDRFSGSGSGTDFTLTISSLQAEDVAVYYCKQSFILRTFGQGTKVEIK | 2.4 | 1.9 | 0.00357 | 1.86e+06 | 
14 | humanized SP34 variant: λ7 graft + F36V + T46G + Y49G / VH3 graft + N73D + T93V (antibody, V domains shown) VH: EVQLVESGGGLVQPGGSLRLSCAASGFTFNTYAMNWVRQAPGKGLEWVGRIRSKYNNYATYYADSVKDRFTISRDDSKNTLYLQMNSLRAEDTAVYYCVRHGNFGNSYVSWFAYWGQGTLVTVSS VL: EAVVTQEPSLTVSPGGTVTLTCRSSTGAVTTSNYANWVQQKPGQAPRGLIGGTNKRAPWTPARFSGSLLGGKAALTLSGAQPEDEAEYYCALWYSNLWVFGGGTKLTVL |  |  |  |  | 3.5
